From the supplement of paper PMC9170038

Test system: MS2 coat protein
Experiment: apparent KD of MS2 coat protein; designed switch direction (-1 OFF switch, 1 ON switch): -1; higher = weaker reporter binding
How it was run: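 Three titration conditions were used: no input, 200 uM small-molecule ligand, and an oligonucleotide input. In each, SNAP-549-labelled MS2 coat protein was raised from 0.7 or 1.5 nM, doubling, to 3 µM over designed RNA switches transcribed on Illumina chips by stalled E. coli RNA polymerase. Curve fits of normalised cluster fluorescence gave values whose per-design median over clusters is the apparent KD.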

[1] = input ligand: microRNA oligo, concentration not stated
[2] = Eterna round: R95, input ligand: FMN 200 uM
[3] = Eterna round: R95, input ligand: microRNA oligo, concentration not stated
[4] = Eterna round: R95, input ligand: none

Sequence | apparent KD of MS2 coat protein (input ligand: FMN 200 uM) [nM] | apparent KD of MS2 coat protein [1] [nM] | apparent KD of MS2 coat protein (input ligand: none) [nM] | apparent KD of MS2 coat protein [2] [nM] | apparent KD of MS2 coat protein [3] [nM] | apparent KD of MS2 coat protein [4] [nM]
UUGUUGUAUGUAGGAUAUGCAUAUUGUUAUUAUGCAGAAGGACAUGAGGAUCACCCAUGUAUAUUACUAUUAUGUACUAUAUAU [MOD of Hoglahoo's a different Title] (Eterna round: R96, puzzle: Exclusion NG 1) | 106 | 25.5 | 32.6 | – | – | –
UUGUUGUGUGUAGGAUAUGCAUGUUAUUAUUAUGCAGAAGGACAUGAGGAUCACCCAUGUGUAUUAUUAUUAUAUAUUAUAUAU [Title] (Eterna round: R96, puzzle: Exclusion NG 1) | 21.1 | 13.8 | 22.5 | – | – | –
UUUAAGUCAGGAUAUACAUGAGGAUCACCCAUGUAAAAUUUUAAUUUAAUUUGAAGGUGUAGAAGGGACAAAUU [Ex3 #37] (Eterna round: R97, puzzle: Exclusion 3) | 23 | – | 24.6 | – | – | –
UUUAAUUUUUUUUUUUUACAAGCUUUUUGCUCGUCUUAUACAUGAGGAUCACCCAUGUAAGUGGGAGAUAAAUUAUC [JMF 21] (puzzle: Sensor v3, turn-off variant 2) | – | – | – | 76.6 | 53.3 | 90.4
UUUAAUUUUUUUUUUUUACAAGCUUUUUGCUCGUCUUAUACAUGAGGAUCACCCAUGUAGGUGAAAAGUAAAUUAUC [JMF 45] (puzzle: Sensor v3, turn-off variant 2) | – | – | – | 15.8 | 82.1 | 20.8
UUUAAUUUUUUUUUUUUACAAGCUUUUUGCUCGUCUUAUACAUGAGGAUCACCCAUGUAGGUGAAAGGUAAAUUAUC [JMF 65] (puzzle: Sensor v3, turn-off variant 2) | – | – | – | 32 | 117 | 30.9
UUUAAUUUUUUUUUUUUACAAGCUUUUUGCUCGUCUUAUACAUGAGGAUCACCCAUGUGAAUGGAAGGUAAAUUAUC [JMF 68] (puzzle: Sensor v3, turn-off variant 2) | – | – | – | 17.3 | 18.4 | 20.4
UUUAAUUUUUUUUUUUUACAAGCUUUUUGCUCGUCUUAUACAUGAGGAUCACCCAUGUGAGUGGAGGGUAAAUUAUC [JMF 88] (puzzle: Sensor v3, turn-off variant 2) | – | – | – | 17.8 | 45.8 | 16.3
UUUAAUUUUUUUUUUUUACAAGCUUUUUGCUCGUCUUAUACAUGAGGAUCACCCAUGUGAGUGGGAGAUAAAUUAUC [JMF 22] (puzzle: Sensor v3, turn-off variant 2) | – | – | – | 98.2 | 213 | 170
UUUAAUUUUUUUUUUUUACAAGCUUUUUGCUCGUCUUAUACAUGAGGAUCACCCAUGUGGGUAAAAGGUAAAUUAUC [JMF 63] (puzzle: Sensor v3, turn-off variant 2) | – | – | – | 15.3 | 32.8 | 17.3
UUUAAUUUUUUUUUUUUACAAGCUUUUUGCUCGUCUUAUACAUGAGGAUCACCCAUGUGGGUGGAAGAUAAAUUAUC [JMF 12] (puzzle: Sensor v3, turn-off variant 2) | – | – | – | 113 | 75.1 | 134
UUUAGUUCAGGAUAUGUAGAUAUUAACAUGAGGAUCACCCAUGUCGAUCCUGAAUUAACUACAGAAGGGAACAUUU [Mod of Brourd 5 - Jieux - Exclusion 5] (Eterna round: R97, puzzle: Exclusion 5) | 69.6 | – | 17.8 | – | – | –
UUUAGUUCAGGAUAUGUAGAUUUUAACAUGAGGAUCACCCAUGUGGAUCCUGAAUUAACUACAGAAGGGAACAUUU [Mod of Brourd 3 - Jieux - Exclusion 5] (Eterna round: R97, puzzle: Exclusion 5) | 294 | – | 43 | – | – | –
